Columns and labels:
Assay in all cases: fluorescence protection assay
Thrombin = Thrombin (UniProt P00734;P00734 328-363;364-622)
[1] = biological target: Carcinoembryonic antigen (CEA) (UniProt P06731 35-685)
alpha-fetoprotein (AFP) = biological target: T1, alpha-fetoprotein (AFP) (UniProt P02771 19-609)
T1 sequence: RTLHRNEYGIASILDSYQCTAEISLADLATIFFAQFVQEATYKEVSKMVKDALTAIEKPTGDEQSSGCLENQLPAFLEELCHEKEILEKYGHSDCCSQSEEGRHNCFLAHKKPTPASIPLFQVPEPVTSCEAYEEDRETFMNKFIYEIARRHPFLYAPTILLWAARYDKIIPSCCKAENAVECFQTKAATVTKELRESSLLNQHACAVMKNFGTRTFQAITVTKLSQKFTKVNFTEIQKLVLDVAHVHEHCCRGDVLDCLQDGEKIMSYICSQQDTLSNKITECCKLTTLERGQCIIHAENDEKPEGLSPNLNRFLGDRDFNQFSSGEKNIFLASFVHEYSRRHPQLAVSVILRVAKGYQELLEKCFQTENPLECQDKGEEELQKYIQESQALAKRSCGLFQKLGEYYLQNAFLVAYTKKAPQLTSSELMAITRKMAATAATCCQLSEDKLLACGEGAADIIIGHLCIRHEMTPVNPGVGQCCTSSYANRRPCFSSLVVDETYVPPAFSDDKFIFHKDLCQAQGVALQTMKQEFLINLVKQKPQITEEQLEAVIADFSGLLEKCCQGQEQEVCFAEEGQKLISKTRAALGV

Measured: binding result

Carcinoembryonic antigen (CEA), sequence (P06731 35-685): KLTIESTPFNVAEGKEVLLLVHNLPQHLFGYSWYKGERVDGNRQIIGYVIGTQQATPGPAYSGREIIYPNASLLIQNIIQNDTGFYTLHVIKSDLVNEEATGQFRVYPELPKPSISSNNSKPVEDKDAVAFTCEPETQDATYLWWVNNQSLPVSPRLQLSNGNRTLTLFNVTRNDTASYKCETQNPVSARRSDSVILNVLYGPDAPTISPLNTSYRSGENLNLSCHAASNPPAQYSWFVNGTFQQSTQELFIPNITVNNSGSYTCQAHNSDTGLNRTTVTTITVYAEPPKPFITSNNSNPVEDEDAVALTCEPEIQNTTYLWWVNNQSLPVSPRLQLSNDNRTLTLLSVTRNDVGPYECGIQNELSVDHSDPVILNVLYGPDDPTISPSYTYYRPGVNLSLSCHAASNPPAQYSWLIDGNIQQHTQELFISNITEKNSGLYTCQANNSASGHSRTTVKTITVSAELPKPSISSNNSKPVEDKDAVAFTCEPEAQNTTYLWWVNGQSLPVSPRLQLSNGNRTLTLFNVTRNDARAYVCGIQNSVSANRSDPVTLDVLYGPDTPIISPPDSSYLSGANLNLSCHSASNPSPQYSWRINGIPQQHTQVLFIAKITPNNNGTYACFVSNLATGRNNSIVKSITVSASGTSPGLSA

GCGCGGGGCACGTTTATCCGTCCCTCCTAGTGGCGTGCCCCGCGC (structured_DNA, FITC-modified T at Site 1 (position only in Fig 2A)) [IgE aptamer, FITC at Site 1]
no binding: all assays above

Reference: publication PMC3185441
